Data published in patent US20250327097A1, “ORGANISMS PRODUCING LESS CROTONIC ACID” (Global Bioenergies, priority 2021, published 2025).

Each molecule was assayed on 3-methylcrotonic acid.
Format: biochemical, Yersinia frederiksenii
Design: key: “+” representing a low increase in activity; “++++” representing a high increase in activity

Molecule	Activity relative to WT
I283T-P284D-i284aP-N287P-S322T-N388M-E421V-C430N-I431M-L432F-L434W-S436N-H461T-dG462-A463T (protein) MFLKSLREQINLLKRQGDLRIINRPVDSYLEAAAIIRRSTETKAPVPLMTNIKGYPGCSIVGGLAALSSNPEYPLSRVAMSLGLSTTASAQSIVQYLIDGLKKTPYLPVEIDSNSAPCKQNILRGEDASLAHFPIPQVHQHDGNRYVNTWGVFIVESPDGQWCNWSIQRVQYLNDRQMIALVFPSQHISDIWEEWVKIGKPMPYALVQGCEPIVPYIAGLPLLERNVNEAEYIGALYGKGIEVVKCETHDLRVPASSEVVIEGYFAITREGVEGPFGEFAGYTDNEPSLQPILSITAISWQDDPIWPVVAEGKPVDEYHTCTGIGDAAAIQNVLLTANLPVSFVWVPLYSACHLMIVSINRHWRQTHPDLTSEQLTKKVGDVIHQTRMSIKLPKIVVLDDDVDPADTESLLWALATRIHPVRKRYFYESNMFPWLNCYSEEERHNRKGKRVIIDALLPENTGTISSFDYAYPDDIKQRVLMHWETDFSHD	++++
I283T-P284D-i284aP-N287P-S322T-N388M-E421V-C430N-L432F-L434W-S436N-H461T-G462R-i462aA-A463T (protein) MFLKSLREQINLLKRQGDLRIINRPVDSYLEAAAIIRRSTETKAPVPLMTNIKGYPGCSIVGGLAALSSNPEYPLSRVAMSLGLSTTASAQSIVQYLIDGLKKTPYLPVEIDSNSAPCKQNILRGEDASLAHFPIPQVHQHDGNRYVNTWGVFIVESPDGQWCNWSIQRVQYLNDRQMIALVFPSQHISDIWEEWVKIGKPMPYALVQGCEPIVPYIAGLPLLERNVNEAEYIGALYGKGIEVVKCETHDLRVPASSEVVIEGYFAITREGVEGPFGEFAGYTDNEPSLQPILSITAISWQDDPIWPVVAEGKPVDEYHTCTGIGDAAAIQNVLLTANLPVSFVWVPLYSACHLMIVSINRHWRQTHPDLTSEQLTKKVGDVIHQTRMSIKLPKIVVLDDDVDPADTESLLWALATRIHPVRKRYFYESNIFPWLNCYSEEERHNRKGKRVIIDALLPENTRTISSFDYAYPDDIKQRVLMHWETDFSHD	++++
I283T-P284D-i284aP-N287P-S322T-N388M-E421V-C430N-L432F-L434W-S436N-C437F-G448E-H461T-G462R-i462aA-A463T (protein) MFLKSLREQINLLKRQGDLRIINRPVDSYLEAAAIIRRSTETKAPVPLMTNIKGYPGCSIVGGLAALSSNPEYPLSRVAMSLGLSTTASAQSIVQYLIDGLKKTPYLPVEIDSNSAPCKQNILRGEDASLAHFPIPQVHQHDGNRYVNTWGVFIVESPDGQWCNWSIQRVQYLNDRQMIALVFPSQHISDIWEEWVKIGKPMPYALVQGCEPIVPYIAGLPLLERNVNEAEYIGALYGKGIEVVKCETHDLRVPASSEVVIEGYFAITREGVEGPFGEFAGYTDNEPSLQPILSITAISWQDDPIWPVVAEGKPVDEYHTCTGIGDAAAIQNVLLTANLPVSFVWVPLYSACHLMIVSINRHWRQTHPDLTSEQLTKKVGDVIHQTRMSIKLPKIVVLDDDVDPADTESLLWALATRIHPVRKRYFYESNIFPWLNFYSEEERHNRKEKRVIIDALLPENTRTISSFDYAYPDDIKQRVLMHWETDFSHD	++++
V272L-I283T-P284D-i284aP-N287P-S322T-N388M-E421V-C430N-L432F-L434W-S436N-H461T-dG462-A463T (protein) MFLKSLREQINLLKRQGDLRIINRPVDSYLEAAAIIRRSTETKAPVPLMTNIKGYPGCSIVGGLAALSSNPEYPLSRVAMSLGLSTTASAQSIVQYLIDGLKKTPYLPVEIDSNSAPCKQNILRGEDASLAHFPIPQVHQHDGNRYVNTWGVFIVESPDGQWCNWSIQRVQYLNDRQMIALVFPSQHISDIWEEWVKIGKPMPYALVQGCEPIVPYIAGLPLLERNVNEAEYIGALYGKGIEVVKCETHDLRVPASSEVVIEGYFAITREGLEGPFGEFAGYTDNEPSLQPILSITAISWQDDPIWPVVAEGKPVDEYHTCTGIGDAAAIQNVLLTANLPVSFVWVPLYSACHLMIVSINRHWRQTHPDLTSEQLTKKVGDVIHQTRMSIKLPKIVVLDDDVDPADTESLLWALATRIHPVRKRYFYESNIFPWLNCYSEEERHNRKGKRVIIDALLPENTGTISSFDYAYPDDIKQRVLMHWETDFSHD	++++
V272R-I283T-P284D-i284aP-N287P-S322T-N388M-E421V-C430N-L432F-L434W-S436N-H461T-dG462-A463T (protein) MFLKSLREQINLLKRQGDLRIINRPVDSYLEAAAIIRRSTETKAPVPLMTNIKGYPGCSIVGGLAALSSNPEYPLSRVAMSLGLSTTASAQSIVQYLIDGLKKTPYLPVEIDSNSAPCKQNILRGEDASLAHFPIPQVHQHDGNRYVNTWGVFIVESPDGQWCNWSIQRVQYLNDRQMIALVFPSQHISDIWEEWVKIGKPMPYALVQGCEPIVPYIAGLPLLERNVNEAEYIGALYGKGIEVVKCETHDLRVPASSEVVIEGYFAITREGREGPFGEFAGYTDNEPSLQPILSITAISWQDDPIWPVVAEGKPVDEYHTCTGIGDAAAIQNVLLTANLPVSFVWVPLYSACHLMIVSINRHWRQTHPDLTSEQLTKKVGDVIHQTRMSIKLPKIVVLDDDVDPADTESLLWALATRIHPVRKRYFYESNIFPWLNCYSEEERHNRKGKRVIIDALLPENTGTISSFDYAYPDDIKQRVLMHWETDFSHD	++++
R15L-I283T-P284D-i284aP-N287P-S322T-K378M-N388M-E421V-C430N-L432F-L434W-S436N-H461T-dG462-A463T (protein) MFLKSLREQINLLKLQGDLRIINRPVDSYLEAAAIIRRSTETKAPVPLMTNIKGYPGCSIVGGLAALSSNPEYPLSRVAMSLGLSTTASAQSIVQYLIDGLKKTPYLPVEIDSNSAPCKQNILRGEDASLAHFPIPQVHQHDGNRYVNTWGVFIVESPDGQWCNWSIQRVQYLNDRQMIALVFPSQHISDIWEEWVKIGKPMPYALVQGCEPIVPYIAGLPLLERNVNEAEYIGALYGKGIEVVKCETHDLRVPASSEVVIEGYFAITREGVEGPFGEFAGYTDNEPSLQPILSITAISWQDDPIWPVVAEGKPVDEYHTCTGIGDAAAIQNVLLTANLPVSFVWVPLYSACHLMIVSINRHWRQTHPDLTSEQLTKMVGDVIHQTRMSIKLPKIVVLDDDVDPADTESLLWALATRIHPVRKRYFYESNIFPWLNCYSEEERHNRKGKRVIIDALLPENTGTISSFDYAYPDDIKQRVLMHWETDFSHD	++++
I283T-P284D-i284aP-N287P-S322T-N388M-E421V-C430N-L432F-L434W-S436N-C437F-H461T-G462R-i462aA-A463T (protein) MFLKSLREQINLLKRQGDLRIINRPVDSYLEAAAIIRRSTETKAPVPLMTNIKGYPGCSIVGGLAALSSNPEYPLSRVAMSLGLSTTASAQSIVQYLIDGLKKTPYLPVEIDSNSAPCKQNILRGEDASLAHFPIPQVHQHDGNRYVNTWGVFIVESPDGQWCNWSIQRVQYLNDRQMIALVFPSQHISDIWEEWVKIGKPMPYALVQGCEPIVPYIAGLPLLERNVNEAEYIGALYGKGIEVVKCETHDLRVPASSEVVIEGYFAITREGVEGPFGEFAGYTDNEPSLQPILSITAISWQDDPIWPVVAEGKPVDEYHTCTGIGDAAAIQNVLLTANLPVSFVWVPLYSACHLMIVSINRHWRQTHPDLTSEQLTKKVGDVIHQTRMSIKLPKIVVLDDDVDPADTESLLWALATRIHPVRKRYFYESNIFPWLNFYSEEERHNRKGKRVIIDALLPENTRTISSFDYAYPDDIKQRVLMHWETDFSHD	++++
I283T-P284D-i284aP-N287P-S322T-N388M-E421V-C430N-L432F-L434W-S436N-C437F-G448E-H461T-dG462-A463T (protein) MFLKSLREQINLLKRQGDLRIINRPVDSYLEAAAIIRRSTETKAPVPLMTNIKGYPGCSIVGGLAALSSNPEYPLSRVAMSLGLSTTASAQSIVQYLIDGLKKTPYLPVEIDSNSAPCKQNILRGEDASLAHFPIPQVHQHDGNRYVNTWGVFIVESPDGQWCNWSIQRVQYLNDRQMIALVFPSQHISDIWEEWVKIGKPMPYALVQGCEPIVPYIAGLPLLERNVNEAEYIGALYGKGIEVVKCETHDLRVPASSEVVIEGYFAITREGVEGPFGEFAGYTDNEPSLQPILSITAISWQDDPIWPVVAEGKPVDEYHTCTGIGDAAAIQNVLLTANLPVSFVWVPLYSACHLMIVSINRHWRQTHPDLTSEQLTKKVGDVIHQTRMSIKLPKIVVLDDDVDPADTESLLWALATRIHPVRKRYFYESNIFPWLNFYSEEERHNRKEKRVIIDALLPENTGTISSFDYAYPDDIKQRVLMHWETDFSHD	++++
V272I-I283T-P284D-i284aP-N287P-S322T-N388M-E421V-C430N-L432F-L434W-S436N-H461T-dG462-A463T (protein) MFLKSLREQINLLKRQGDLRIINRPVDSYLEAAAIIRRSTETKAPVPLMTNIKGYPGCSIVGGLAALSSNPEYPLSRVAMSLGLSTTASAQSIVQYLIDGLKKTPYLPVEIDSNSAPCKQNILRGEDASLAHFPIPQVHQHDGNRYVNTWGVFIVESPDGQWCNWSIQRVQYLNDRQMIALVFPSQHISDIWEEWVKIGKPMPYALVQGCEPIVPYIAGLPLLERNVNEAEYIGALYGKGIEVVKCETHDLRVPASSEVVIEGYFAITREGIEGPFGEFAGYTDNEPSLQPILSITAISWQDDPIWPVVAEGKPVDEYHTCTGIGDAAAIQNVLLTANLPVSFVWVPLYSACHLMIVSINRHWRQTHPDLTSEQLTKKVGDVIHQTRMSIKLPKIVVLDDDVDPADTESLLWALATRIHPVRKRYFYESNIFPWLNCYSEEERHNRKGKRVIIDALLPENTGTISSFDYAYPDDIKQRVLMHWETDFSHD	++++
I283T-P284D-i284aP-N287P-S322T-N388M-E421V-C430N-L432F-L434W-S436N-G448E-H461T-G462R-i462aA-A463T (protein) MFLKSLREQINLLKRQGDLRIINRPVDSYLEAAAIIRRSTETKAPVPLMTNIKGYPGCSIVGGLAALSSNPEYPLSRVAMSLGLSTTASAQSIVQYLIDGLKKTPYLPVEIDSNSAPCKQNILRGEDASLAHFPIPQVHQHDGNRYVNTWGVFIVESPDGQWCNWSIQRVQYLNDRQMIALVFPSQHISDIWEEWVKIGKPMPYALVQGCEPIVPYIAGLPLLERNVNEAEYIGALYGKGIEVVKCETHDLRVPASSEVVIEGYFAITREGVEGPFGEFAGYTDNEPSLQPILSITAISWQDDPIWPVVAEGKPVDEYHTCTGIGDAAAIQNVLLTANLPVSFVWVPLYSACHLMIVSINRHWRQTHPDLTSEQLTKKVGDVIHQTRMSIKLPKIVVLDDDVDPADTESLLWALATRIHPVRKRYFYESNIFPWLNCYSEEERHNRKEKRVIIDALLPENTRTISSFDYAYPDDIKQRVLMHWETDFSHD	++++
